B1: Cell division control protein 73 (Saccharomyces cerevisiae), Q06697 (parent)
chain: MANSLDRLREHLKNGDKLVLKNNEGQSTDDITKATMVETLSSDGSTQDSFPLNEETEIEIDGSLVQLRIIVHCWMNKDSSAADYLADCQNKQLTNVSFLQRTDLINWLSGNTESSQYLKAPGQKGETSDKVDIENKTLAGELSTVKSTTSASLENDSEVSDPVVVETMKHERILVDHNSALRGAKPINFGYLIKDAELKLVQSIKGSLRGSKLPPGHKGAHGRISKTNGSSGGPRKDPIILIPSAASSILTVANIKQFLLESKYVNPRNLPSVPNGLVNIEKNFERISRPIRFIIVDNTRMFTKPEYWDRVVAIFTTGHTWQFNNYQWNSPQELFQRCKGYYFHFAGDSVPQHVQQWNVEKVELDKNKRFKDVEVVRYFWHSLEKELISRGYR
B2: Transcription elongation factor SPT5 (Saccharomyces cerevisiae), P27692 (parent)
chain: MSDNSDTNVSMQDHDQQFADPVVVPQSTDTKDENTSDKDTVDSGNVTTTESTERAESTSNIPPLDGEEKEAKSEPQQPEDNAETAATEQVSSSNGPATDDAQATLNTDSSEANEIVKKEEGSDERKRPREEDTKNSDGDTKDEGDNKDEDDDEDDDDDDDDEDDDDEAPTKRRRQERNRFLDIEAEVSDDEDEDEDEEDSELVREGFITHGDDEDDEASAPGARRDDRLHRQLDQDLNKTSEEDAQRLAKELRERYGRSSSKQYRAAAQDGYVPQRFLLPSVDTATIWGVRCRPGKEKELIRKLLKKKFNLDRAMGKKKLKILSIFQRDNYTGRIYIEAPKQSVIEKFCNGVPDIYISQKLLIPVQELPLLLKPNKSDDVALEEGSYVRIKRGIYKGDLAMVDQISENNLEVMLKIVPRLDYGKFDEIDPTTQQRKSRRPTFAHRAPPQLFNPTMALRLDQANLYKRDDRHFTYKNEDYIDGYLYKSFRIQHVETKNIQPTVEELARFGSKEGAVDLTSVSQSIKKAQAAKVTFQPGDRIEVLNGEQRGSKGIVTRTTKDIATIKLNGFTTPLEFPISTLRKIFEPGDHVTVINGEHQGDAGLVLMVEQGQVTFMSTQTSREVTITANNLSKSIDTTATSSEYALHDIVELSAKNVACIIQAGHDIFKVIDETGKVSTITKGSILSKINTARARVSSVDANGNEIKIGDTIVEKVGSRREGQVLYIQTQQIFVVSKKIVENAGVFVVNPSNVEAVASKDNMLSNKMDLSKMNPEIISKMGPPSSKTFQQPIQSRGGREVALGKTVRIRSAGYKGQLGIVKDVNGDKATVELHSKNKHITIDKHKLTYYNREGGEGITYDELVNRRGRVPQARMGPSYVSAPRNMATGGIAAGAAATSSGLSGGMTPGWSSFDGGKTPAVNAHGGSGGGGVSSWGGASTWGGQGNGGASAWGGAGGGASAWGGQGTGATSTWGGASAWGNKSSWGGASTWASGGESNGAMSTWGGTGDRSAYGGASTWGGNNNNKSTRDGGASAWGNQDDGNRSAWNNQGNKSNYGGNSTWGGH
B3: Cell division control protein 73 (Saccharomyces cerevisiae), Q06697 (parent)
chain: B1 chain
partner: B2 chain

Variants of: B1
Conditions: with rpb1_yeast RPO21, P04050
Sequence of rpb1_yeast RPO21, P04050 (P04050 whole entry): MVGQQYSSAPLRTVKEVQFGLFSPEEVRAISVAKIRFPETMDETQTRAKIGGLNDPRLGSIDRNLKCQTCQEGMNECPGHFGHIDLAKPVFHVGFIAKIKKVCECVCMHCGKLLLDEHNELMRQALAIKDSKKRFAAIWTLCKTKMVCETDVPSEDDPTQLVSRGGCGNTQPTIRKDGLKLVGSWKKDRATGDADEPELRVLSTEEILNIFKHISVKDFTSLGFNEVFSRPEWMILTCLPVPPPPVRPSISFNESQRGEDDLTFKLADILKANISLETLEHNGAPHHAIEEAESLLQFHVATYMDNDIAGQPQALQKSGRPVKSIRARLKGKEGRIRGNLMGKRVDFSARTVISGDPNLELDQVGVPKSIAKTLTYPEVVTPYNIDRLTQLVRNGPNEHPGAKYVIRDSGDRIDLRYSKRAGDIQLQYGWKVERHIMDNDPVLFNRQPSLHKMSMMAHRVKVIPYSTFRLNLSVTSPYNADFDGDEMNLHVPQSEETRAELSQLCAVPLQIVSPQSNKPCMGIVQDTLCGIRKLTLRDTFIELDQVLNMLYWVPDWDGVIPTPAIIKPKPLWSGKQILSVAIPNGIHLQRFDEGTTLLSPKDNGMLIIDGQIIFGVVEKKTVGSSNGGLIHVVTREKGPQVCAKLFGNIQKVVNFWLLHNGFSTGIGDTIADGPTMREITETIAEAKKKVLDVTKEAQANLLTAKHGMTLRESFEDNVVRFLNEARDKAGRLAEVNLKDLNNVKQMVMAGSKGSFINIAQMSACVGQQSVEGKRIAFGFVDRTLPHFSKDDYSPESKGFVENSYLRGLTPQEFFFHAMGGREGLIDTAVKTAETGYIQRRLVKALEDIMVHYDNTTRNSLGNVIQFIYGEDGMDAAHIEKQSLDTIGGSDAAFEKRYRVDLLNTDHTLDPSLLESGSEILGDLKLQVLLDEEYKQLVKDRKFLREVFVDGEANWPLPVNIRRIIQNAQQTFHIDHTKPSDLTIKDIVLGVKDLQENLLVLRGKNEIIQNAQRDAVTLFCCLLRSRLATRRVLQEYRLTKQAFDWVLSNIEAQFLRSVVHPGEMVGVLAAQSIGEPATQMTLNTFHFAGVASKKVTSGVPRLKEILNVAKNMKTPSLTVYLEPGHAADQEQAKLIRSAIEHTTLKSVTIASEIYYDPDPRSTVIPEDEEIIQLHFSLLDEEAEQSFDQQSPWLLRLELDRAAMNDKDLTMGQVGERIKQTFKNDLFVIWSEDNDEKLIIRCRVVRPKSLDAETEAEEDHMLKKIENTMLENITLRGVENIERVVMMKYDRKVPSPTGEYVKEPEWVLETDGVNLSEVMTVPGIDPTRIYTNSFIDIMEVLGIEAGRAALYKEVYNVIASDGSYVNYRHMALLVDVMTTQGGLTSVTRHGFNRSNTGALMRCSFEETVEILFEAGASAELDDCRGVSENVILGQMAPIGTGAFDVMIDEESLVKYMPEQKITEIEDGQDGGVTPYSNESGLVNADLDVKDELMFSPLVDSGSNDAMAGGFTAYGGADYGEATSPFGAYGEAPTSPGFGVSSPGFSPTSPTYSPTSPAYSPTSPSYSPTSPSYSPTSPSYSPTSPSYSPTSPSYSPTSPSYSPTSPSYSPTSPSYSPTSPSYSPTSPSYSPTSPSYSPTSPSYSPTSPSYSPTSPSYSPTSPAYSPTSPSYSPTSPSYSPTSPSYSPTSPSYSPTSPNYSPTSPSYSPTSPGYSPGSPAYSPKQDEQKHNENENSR

| Variant | effect of a mutation on the interaction |
| --- | --- |
| W380A | disrupting interaction |
| W357A | disrupting interaction |

Variants of: B2
Conditions: with rtf1_yeast RTF1, P53064
Sequence of rtf1_yeast RTF1, P53064 (P53064 whole entry): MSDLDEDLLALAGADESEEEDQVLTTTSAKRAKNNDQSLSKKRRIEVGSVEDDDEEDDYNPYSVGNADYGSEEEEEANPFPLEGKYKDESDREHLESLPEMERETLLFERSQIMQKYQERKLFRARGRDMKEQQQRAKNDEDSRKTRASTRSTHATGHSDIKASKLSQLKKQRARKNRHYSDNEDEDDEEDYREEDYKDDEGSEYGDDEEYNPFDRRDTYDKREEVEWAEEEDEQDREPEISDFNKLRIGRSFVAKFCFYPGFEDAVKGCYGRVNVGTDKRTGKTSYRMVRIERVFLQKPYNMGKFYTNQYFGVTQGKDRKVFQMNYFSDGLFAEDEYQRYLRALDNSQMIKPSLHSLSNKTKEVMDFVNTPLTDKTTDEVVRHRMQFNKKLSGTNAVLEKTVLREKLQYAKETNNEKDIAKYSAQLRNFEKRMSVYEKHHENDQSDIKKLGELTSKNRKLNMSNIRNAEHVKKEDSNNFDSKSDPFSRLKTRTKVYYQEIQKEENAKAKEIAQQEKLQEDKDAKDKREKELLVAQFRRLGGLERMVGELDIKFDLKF

| Variant | effect of a mutation on the interaction |
| --- | --- |
| M1D | decreasing interaction |

Variants of: B3
Conditions: with spt5_yeast SPT5, P27692

| Variant | effect of a mutation on the interaction |
| --- | --- |
| W380A | disrupting interaction |
| W357A | disrupting interaction |
